Source: the DeepSol protein solubility set

test: soluble on expression in E. coli; label from the status in PepcDB or PDB records

Soluble on expression in E. coli, not soluble:
MKLAKRVAALTPSATLEITAKAQALKAEGHDVIGLGAGEPDFNTPEHIMDAAHKAMLEGHTKYTPTGGLQALKQEIVKKFTRDQGIAYDPSEIIVCNGAKHALYTLFQVLLDEGDEVIIPTPYWVSYPEQVKLAGGKPVYVEGLEGNEYKITAEQLREAITEKTKAVIINSPSNPTGMIYSKEELQQLGEVCLEHDILIVSDEIYEKLIYGGAEYTSIAQLSNALKEQTLIINGVSKSHSMTGWRIGYAAGNKQLIKAMTNLASHSTSNPTSIAQYGAIAAYAGSQEPVETMRQAFEERLNIIYDKLIQIPGFTCIKPQGAFYLFPNVKEAVALSGYETVDEWAKALLEEEKVALVPGTGFGAPNNVRLSYATSLEQVEKALERIHTFMKSKVQA
MSNKLETGIQYMQEGNWEEAAKNFTEAIEENPKDALGYINFANLLDVLGDSERAILFYKRALELDDKSAAAYYGLGNVYYGQEQFTEAKAVFEQAMQAGLQSADVTFMLGITHVQLGNDRLALPFLQRATELDENDVEAVFQCGLCFARLEHVQEAKPYFEKVLEMDEEHADAYYNLGVAYVFEENNEKALALFKKATEIQPDHFLAGNGVRLLEQEAE
MIRFEHVSKAYLGGRQALQGVTFHMRPGEMAFLTGHSGAGKSTLLKLICGIERPSAGKIFFSGHDITRLKNREVPFLRRQIGMIFQDHHLLMDRTVYDNVAIPLIIAGASGDDIRRRVSAALDKVGLLDKARNFPIQLSGGEQQRVGIARAVVNKPAVLLADEPTGNLDDALSEGILRLFEEFNRVGVTVLMATHDIGLISRRSYRQLVLSDGHLHGGLANE
MGSDKIHHHHHHMNRDYVCSEMFCMGTIISQKIYGEDKKEVLFKVENEMRRLEKAMNFYSSSSEISKLNKFGFENEIKLSKDVYHVIKNAKNFSKKTLGAFDISLAPIIKLWGIFCENERVPSVKEIEKNLSLVNYKNLVLNDYKRTVKFLVEDMKVDLGGIAKGYAADRAIDIYKGGGVKSASINLGGNVSVIGEKPDGKSWCIGVQNPLKKRGEIIGAISVKNKSVVTSGSYVRYFEKDNIKYHHIIDPKTGYPAKEELLSVTVIFENSMLCDAVSTAAFIAGADGGIELVKRFRDVEAIFITKDRKVIITKGIAKSFSLVEESGFQYL

Soluble on expression in E. coli, soluble:
MAPAKSPRAWQRMLSGRRLDLLDPSPLDVEIADIAHGLARVARWNGQTRGDHAFTVAQHCLIVETIFCRMCPGATPDEMQMALLHDAPEYVIGDMISPFKSVVGGGYKTVEKRLEAAVHLRFGLPPHASRELKDRIKKADTVAAFFEATELAGFSTAEAQKFFGLPRGITRDMFDIIPLPSTEAQRLFIARFEAIETLRVTRTGGAV
MRLLTWDVKDTLLRLRHPLGEAYATKARAHGLEVEPSALEQGFRQAYRAQSHSFPNYGLSHGLTSRQWWLDVVLQTFHLAGVQDAQAVAPIAEQLYKDFSHPCTWQVLDGAEDTLRECRTRGLRLAVISNFDRRLEGILGGLGLREHFDFVLTSEAAGWPKPDPRIFQEALRLAHMEPVVAAHVGDNYLCDYQGPRAVGMHSFLVVGPQALDPVVRDSVPKEHILPSLAHLLPALDCLEGSAENLYFQSHHHHHHDYKDDDDK
MNVLGRITAMPDLPEPLEGLKEIAYNLWWSWNPEAAELFQELDPALWKRFRGNPVKLLLELDPARLEALSASGYAARVQATREALRAYLEARRTKRGPLVAYFSAEYGFHSSLPIYAGGLGVLAGDHVKAASDLGLNLVGVGLFYHEGYFHQRLSPEGEQVEVYEPLRPEELPLVPVQDAEGRPVRVAVEFPGRLVHVGGYRVQVGAVPVYLLTTDLPENAPEDRQITARLYAAGLEARIQQELVLGLGGVRFLRALGLAPAFFHMNEGHSAFLGLERLRELVAEGYPFREALELARASALFTTHTPVPAGHDVFPLDLVDRYLGGFWEKLGVDRDTFLGLGLEEKPWGPVFSMSNLALRTAAQANGVSRLHGEVSRNMFRHLWPGLLAEEVPIGHVTNGVHTWTFLHPRLRRHYAEVFGPEWVERPEDPETWRVEGLGEAFWRIRQDLKLFLVREVRQRLYEQRRRNGEGPARLREAEKALDPEALTIGFARRFATYKRAVLLFKDPERLLRILKGPYPVQFVFAGKAHPKDEAGKAYLQELVSKIREYGLEDRMVVLEDYDMYLARVLTHGSDVWLNTPRRPMEASGTSGMKAALNGALNLSVLDGWWAEAYNGKNGFAIGDERVYESEEAQDVADAQALYDLLESEVIPLFYAKGLEGYSSGWMSMVHESLRTVGPYFSAGRMVRDYLALYERGALWEKEARARLEALKAFAEALSAFHALGVRPEVPGDLTLNGGRLEVGSVLEGEVPEGLRPHLRVQLVVRRLGGGLEVVDLEEVAPGRYRTAFRPTRPGSYTYGLRLALLHPVTGRVEWVRWA
